Among the data in patent US20200338203A1 (Bicycle, published 2020) are Ki values, retold here.

Assay [1] concerns the target T1, Human EphA2 (Ecto) (Human, UniProt P29317 24-537).
T1 construct: extracellular domain
As to the kind of experiment: FP competition; competitor Compound 66. The method, then: (§1) Peptides without a fluorescent tag were tested in competition with a peptide with a fluorescent tag and a known Kd (Table 2). Peptides were diluted to an appropriate concentration in assay buffer as described in the direct binding assay with a maximum of 5% DMSO, then serially diluted 1 in 2. Five μL of diluted peptide was added to the plate followed by 10 μL of human or mouse EphA2 (Table 1) at a fixed concentration which was dependent on the fluorescent peptide used (Table 2), then 10 μL fluorescent peptide added. Measurements were conducted as for the direct binding assay, however the gain was determined prior to the first measurement.

Assay [2] deals with T1, Human EphA2 (Ecto). The assay can be described thus: FP competition; competitor Compound 18. The method, then: as §1
Assay [3] deals with T1, Human EphA2 (Ecto). The assay can be described thus: FP competition; competitor Compound 18. The source holds these as a separate data set.

Numbered stars: 1 amine (or outer) side, 2 acyl side, 3 side chain; on linkers, the order of the positions; unused ones are H or OH. Bridge positions count the residues as written; N and C are the ends. Square brackets hold non-standard residues; d marks the D form. Ends that are not written are not given here. 1Nal = N[C@@H](Cc1cccc2ccccc12)C(=O)O; TBMB = c1c(C[*:1])cc(C[*:3])cc1C[*:2]; hArg = N=C(N)NCCCC[C@H](N)C(=O)O; Tle = CC(C)(C)[C@H](N)C(=O)O; Aib = CC(C)(N)C(=O)O; Sar = CNCC(=O)O

T1 sequence (P29317 24-537): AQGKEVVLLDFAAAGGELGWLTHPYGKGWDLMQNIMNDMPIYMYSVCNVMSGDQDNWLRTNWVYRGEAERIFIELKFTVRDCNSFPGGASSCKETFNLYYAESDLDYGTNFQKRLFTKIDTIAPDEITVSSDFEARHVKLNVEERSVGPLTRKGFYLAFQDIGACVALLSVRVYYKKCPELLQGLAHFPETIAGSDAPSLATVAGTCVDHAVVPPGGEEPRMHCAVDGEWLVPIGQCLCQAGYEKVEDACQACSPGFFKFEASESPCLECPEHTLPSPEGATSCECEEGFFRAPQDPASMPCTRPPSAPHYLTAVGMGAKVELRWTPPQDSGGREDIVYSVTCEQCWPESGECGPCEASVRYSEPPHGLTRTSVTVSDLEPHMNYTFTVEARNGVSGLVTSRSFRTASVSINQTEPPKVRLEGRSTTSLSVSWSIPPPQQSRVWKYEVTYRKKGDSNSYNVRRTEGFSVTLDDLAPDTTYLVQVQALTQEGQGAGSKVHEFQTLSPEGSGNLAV

The Ki is a dissociation constant, usually derived from enzyme kinetics or from competition with a known ligand. [Sar][Sar]ACPWGPFWCPVNR[dA]GC (linker 4-11-18 via TBMB) [Compound 105]: the Ki in the assay with Human EphA2 (Ecto) [1] is 471 nM. As to AEGLPCPWGPFWCPVNRPGCA (linker 6-13-20 via TBMB) [Compound 55], the values for the Ki with Human EphA2 (Ecto) [2] and in the assay with Human EphA2 (Ecto) [1] were 11.3 nM and 6.15 nM, respectively.

Take ACPWGPAWCPVRDTNCA (linker 2-9-16 via TBMB) [Compound 42]: the Ki in the assay with Human EphA2 (Ecto) [1] amounted to 316 nM. Regarding [Sar][Sar]ACP[1Nal]GPFWCP[Tle][dA]RPGC (linker 4-11-18 via TBMB) [Compound 129], the Ki with Human EphA2 (Ecto) [2] is 23 nM; in the assay with Human EphA2 (Ecto) [1] it was 15 nM. The corresponding values for [Sar][Sar]AC[Aib][1Nal]GPFWCPVNRP[dA]C (linker 4-11-18 via TBMB) [Compound 125] are 6.4 nM and 0.61 nM.

Take [Sar][Sar]ACPWGPF[1Nal]CPVNRPGC (linker 4-11-18 via TBMB) [Compound 96]: the Ki in the assay with Human EphA2 (Ecto) [2] was found to be 31.3 nM; in the assay with Human EphA2 (Ecto) [1], 68.1 nM. The matching figures for [Sar][Sar]ACPWGPFWCPVNR[Aib]GC (linker 4-11-18 via TBMB) [Compound 110]: 75 nM and 140 nM.

Consider ACRVSPEYCPFGPVWCA (linker 2-9-16 via TBMB) [Compound 33], for which the Ki with Human EphA2 (Ecto) [1] was 78.5 nM.

As to ACRVSPEYCPFGPSWCA (linker 2-9-16 via TBMB) [Compound 36], the Ki in the assay with Human EphA2 (Ecto) [1] amounted to 40.5 nM. On the same count and under the same terms, with ACRVSPEYCPFGPEWCA (linker 2-9-16 via TBMB) [Compound 37] the figure was 61.2 nM; with ACRVSPEYCPFGPYWCA (linker 2-9-16 via TBMB) [Compound 38], 26.5 nM. As to [Sar][Sar]ACP[1Nal]GPFWCPV[dA]RPGC (linker 4-11-18 via TBMB) [Compound 115], the inhibition constant Ki with Human EphA2 (Ecto) [2] came out at 12.5 nM; with Human EphA2 (Ecto) [1], 1.64 nM. For the molecule [Sar][Sar]ACP[1Nal]GPF[1Nal]CPVNRPGC (linker 4-11-18 via TBMB) [Compound 120], the results for the Ki in the assay with Human EphA2 (Ecto) [2] and with Human EphA2 (Ecto) [1] were 1.4 nM and 0.98 nM, respectively. The corresponding values for [Sar][Sar]ACP[1Nal]GPFWCPVN[hArg]P[dA]C (linker 4-11-18 via TBMB) [Compound 134] are 1.2 nM and 6.15 nM. The matching figures for [Sar][Sar]ACP[1Nal]G[Aib]FWCPV[dA]RPGC (linker 4-11-18 via TBMB) [Compound 127]: 40 nM and 33 nM.

Take [Sar][Sar]ACP[1Nal]GPFWCPVN[hArg]PGC (linker 4-11-18 via TBMB) [Compound 122]: the Ki is 9.55 nM with Human EphA2 (Ecto) [2] and 8 nM with Human EphA2 (Ecto) [1]. The corresponding values for [Sar][Sar]ACP[1Nal]GPFWCPVNRP[dA]C (linker 4-11-18 via TBMB) [Compound 116] are 2.95 nM and 3.2 nM. The corresponding values for [Sar][Sar]ACPWGPF[1Nal]CPV[dA]RPGC (linker 4-11-18 via TBMB) [Compound 117] are 53 nM and 75 nM. In the case of Ac-[Sar][Sar]A[dD]VTCP[1Nal]G[Aib]F[1Nal]CP[Tle]N[hArg]P[dD]C (linker 7-14-21 via TBMB) [Compound 184], the Ki in the assay with Human EphA2 (Ecto) [3] is 1.19 nM. Regarding ADVHCPWGPFWCPVNRPGCA (linker 5-12-19 via TBMB) [Compound 57], the Ki with Human EphA2 (Ecto) [2] was 0.48 nM; in the assay with Human EphA2 (Ecto) [1], 1.2 nM. The matching figures for ADVTCPWGPFWCPVNRPGCA (linker 5-12-19 via TBMB) [Compound 58]: 1.35 nM and 2.65 nM.

For the molecule ARDDPCPWGPFWCPVNRPGCA (linker 6-13-20 via TBMB) [Compound 62], the Ki with Human EphA2 (Ecto) [1] was 28 nM. Turning to [Sar][Sar]AC[Aib][1Nal]GPFWCPVNRPGC (linker 4-11-18 via TBMB) [Compound 113], the results for the Ki with Human EphA2 (Ecto) [2] and with Human EphA2 (Ecto) [1] were 10 nM and 6.6 nM, respectively. The corresponding values for [Sar][Sar]AC[Aib][1Nal]G[Aib]FWCPVNR[Aib]GC (linker 4-11-18 via TBMB) [Compound 135] are 43 nM and 30 nM. For the molecule ACRVSPEYCPFGPVWCAGAAA (linker 2-9-16 via TBMB) [Compound 34], in the assay with Human EphA2 (Ecto) [1], the Ki was 77.4 nM. As to ACPWGPFWCPVNRPGCA (linker 2-9-16 via TBMB) [Compound 69], the Ki with Human EphA2 (Ecto) [2] is 107 nM; with Human EphA2 (Ecto) [1], 70.1 nM. In the assay with Human EphA2 (Ecto) [3], Ac-[Sar][Sar]A[dD]VTCP[1Nal]G[Aib]F[1Nal]CP[Tle]NR[Aib]GC (linker 7-14-21 via TBMB) [Compound 183] came in with a Ki of 1.02 nM. In the case of [Sar][Sar]ACP[1Nal]GPFWCP[Tle]NR[Aib]GC (linker 4-11-18 via TBMB) [Compound 131], the Ki with Human EphA2 (Ecto) [2] worked out at 11 nM; in the assay with Human EphA2 (Ecto) [1], 6.8 nM. For the molecule [Sar][Sar]ACP[1Nal]GPFWCPV[dA][hArg]PGC (linker 4-11-18 via TBMB) [Compound 133], the Ki came to 14 nM with Human EphA2 (Ecto) [2] and 3.7 nM in the assay with Human EphA2 (Ecto) [1]. The matching figures for [Sar][Sar]ACP[1Nal]GPFWCP[Tle]NRP[dA]C (linker 4-11-18 via TBMB) [Compound 132]: 7.7 nM and 8.7 nM. The corresponding values for [Sar][Sar]ACP[1Nal]G[Aib]FWCPVNRP[dA]C (linker 4-11-18 via TBMB) [Compound 128] are 15 nM and 16 nM. The matching figures for [Sar][Sar]ACPWG[Aib]F[1Nal]CPVNRPGC (linker 4-11-18 via TBMB) [Compound 123]: 63 nM and 46 nM. With [Sar][Sar]ACP[1Nal]GPFWCP[Tle]NRPGC (linker 4-11-18 via TBMB) [Compound 121], the results for the Ki in the assay with Human EphA2 (Ecto) [2] and in the assay with Human EphA2 (Ecto) [1] were 3.65 nM and 2 nM, respectively.

Regarding [Sar][Sar]ACPWGPAWCPVNRPGC (linker 4-11-18 via TBMB) [Compound 83], the Ki came to 199 nM with Human EphA2 (Ecto) [2] and 288 nM with Human EphA2 (Ecto) [1]. Regarding [Sar][Sar]ACPWGPYWCPVNRPGC (linker 4-11-18 via TBMB) [Compound 91], in the assay with Human EphA2 (Ecto) [1], the Ki is 138 nM. On to [Sar][Sar]ACPWGPFWCPVNRPAC (linker 4-11-18 via TBMB) [Compound 111], for which the Ki in the assay with Human EphA2 (Ecto) [2] was found to be 108 nM; in the assay with Human EphA2 (Ecto) [1], 238 nM.

[Sar][Sar]ACPWGPFWCPVNRAGC (linker 4-11-18 via TBMB) [Compound 104]: the inhibition constant Ki with Human EphA2 (Ecto) [2] was found to be 124 nM; with Human EphA2 (Ecto) [1], 194 nM.

Take ACPWGPFWCPVARPGC (printed: Sar2-ACPWGPFWCPVARPGC; TBMB on the 3 Cys) [Compound 101]: the Ki with Human EphA2 (Ecto) [2] was 293 nM; in the assay with Human EphA2 (Ecto) [1], 265 nM. The molecule Ac-[Sar][Sar]A[dD]VTCP[1Nal]G[Aib]F[1Nal]CP[Tle]N[hArg]PGC (linker 7-14-21 via TBMB) [Compound 182] gave a Ki with Human EphA2 (Ecto) [3] of 1.16 nM. For the molecule [Sar][Sar]ACP[1Nal]G[Aib]FWCP[Tle]NRPGC (linker 4-11-18 via TBMB) [Compound 126], the Ki with Human EphA2 (Ecto) [2] was determined as 15 nM; with Human EphA2 (Ecto) [1], 19 nM. The corresponding values for [Sar][Sar]ACP[1Nal]G[Aib]FWCP[Tle]N[hArg]PGC (linker 4-11-18 via TBMB) [Compound 136] are 23 nM and 15 nM.
